According to publication PMC2192576 (1996):

B1: 3BC6.6 TCR (TCR, V domains shown)
Valpha: QSVTQLGSHVSVSEGALVLLRCNYSSSVPPYLFWYVQYPNQGLQLLLKYTSAATLVKGINGFEAEFKKSETSFHLTKPSAHMSDAAEYFCAVSEDTSYDKVIFGPGTSLSVIP
Vbeta: DVKVTQSSRYLVKRTGEKVFLECVQDMDHENMFWYRQDPGLGLRLIYFSYDVEMKEKGDIPEGYSVSREKKERFSLILESASTNQTSMYLCASSLTTSGYTFGSGTRLTVV
B2: JS515.11 TCR (TCR, V domains shown)
Valpha: QSVTQLGSHVSVSEGALVLLRCNYSSSVPPYLFWYVQYPNQGLQLLLKYTTGATLVKGINGFEAEFKKSETSFHLTKPSAHMSDAAEYFCAVSEGGGSEKLVFGKGTKLTVNP
Vbeta: DVKVTQSSRYLVKRTGEKVFLECVQDMDHENMFWYRQDPGLGLRLIYFSYDVEMKEKGDIPEGYSVSREKKERFSLILESASTNQTSMYLCASSPGTSGTTYEQYFGPGTRLTVT
B3: hybrid TCR: 3BC6.6 TCRA with JS515.11 TCRB (TCR, V domains shown)
Valpha: QSVTQLGSHVSVSEGALVLLRCNYSSSVPPYLFWYVQYPNQGLQLLLKYTSAATLVKGINGFEAEFKKSETSFHLTKPSAHMSDAAEYFCAVSEDTSYDKVIFGPGTSLSVIP
Vbeta: DVKVTQSSRYLVKRTGEKVFLECVQDMDHENMFWYRQDPGLGLRLIYFSYDVEMKEKGDIPEGYSVSREKKERFSLILESASTNQTSMYLCASSPGTSGTTYEQYFGPGTRLTVT
B4: hybrid TCR: JS515.11 TCRA with 3BC6.6 TCRB (TCR, V domains shown)
Valpha: QSVTQLGSHVSVSEGALVLLRCNYSSSVPPYLFWYVQYPNQGLQLLLKYTTGATLVKGINGFEAEFKKSETSFHLTKPSAHMSDAAEYFCAVSEGGGSEKLVFGKGTKLTVNP
Vbeta: DVKVTQSSRYLVKRTGEKVFLECVQDMDHENMFWYRQDPGLGLRLIYFSYDVEMKEKGDIPEGYSVSREKKERFSLILESASTNQTSMYLCASSLTTSGYTFGSGTRLTVV
B5: JS515.11 TCR with Thr-51 substituted with Ser in CDR2 of the alpha chain (TCR, V domains shown)
Valpha: QSVTQLGSHVSVSEGALVLLRCNYSSSVPPYLFWYVQYPNQGLQLLLKYTSGATLVKGINGFEAEFKKSETSFHLTKPSAHMSDAAEYFCAVSEGGGSEKLVFGKGTKLTVNP
Vbeta: DVKVTQSSRYLVKRTGEKVFLECVQDMDHENMFWYRQDPGLGLRLIYFSYDVEMKEKGDIPEGYSVSREKKERFSLILESASTNQTSMYLCASSPGTSGTTYEQYFGPGTRLTVT
B6: JS515.11 TCR with Gly-52 substituted with Ala in CDR2 of the alpha chain (TCR, V domains shown)
Valpha: QSVTQLGSHVSVSEGALVLLRCNYSSSVPPYLFWYVQYPNQGLQLLLKYTTAATLVKGINGFEAEFKKSETSFHLTKPSAHMSDAAEYFCAVSEGGGSEKLVFGKGTKLTVNP
Vbeta: DVKVTQSSRYLVKRTGEKVFLECVQDMDHENMFWYRQDPGLGLRLIYFSYDVEMKEKGDIPEGYSVSREKKERFSLILESASTNQTSMYLCASSPGTSGTTYEQYFGPGTRLTVT

Key:
[1] = target: T1, influenza virus (A/PR/8/34) HA (hemagglutinin) peptide on HLA-DRA*01:01 / HLA-DRB1*07:01 (human); test: cytokine release
T1 peptide: PKYVKQNTLKLAT

[2] = target: T2, influenza virus (A/PR/8/34) HA (hemagglutinin) peptide on HLA-DRA*01:01 / HLA-DRB1*04:01 (human); test: cytokine release
T2 peptide: PKYVKQNTLKLAT

| Binder | binding result [1] | binding result [2] |
| --- | --- | --- |
| B1 | no recognition | recognises |
| B2 | recognises | recognises |
| B3 | no recognition | no recognition |
| B4 | no recognition | no recognition |
| B5 | recognises | – |
| B6 | recognises | – |
